Reference: the supplement of paper PMC10126150
± gives the standard deviation of the averaged measurements.

Tested on: ATP
Experiment: switch fluorescence ratio, 500 uM ATP over buffer (Cy3 cluster intensity, sum of 5 cycles each) (fold (ratio)); higher = stronger signal-on switching upon ATP binding; sequences stand for … in TCGTCGGCAGCGTCAGATGTGTATAAGAGACAGTTTTTTTTTTTTTTTTTTTTTTTTT…TC
Conditions: aptamer strand: ATP DNA aptamer (quencher-CACCTGGGGGAGTATTGCGGAGGAAGG + anchor), 100 nM annealed; ATP concentration: 500 uM
Summary of the method: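 Switching-strand clusters labelled with Cy3 on a modified Illumina MiSeq flow-cell were annealed to 100 nM quencher-labelled ATP aptamer, imaged in selection buffer, and re-imaged after 15 min with 500 uM ATP at 22 °C. This was done over five cycles with NaOH stripping and re-annealing in between. The fluorescence ratio is summed target-cycle over summed buffer-cycle Cy3 intensity per cluster, averaged per switch-domain sequence, excluding clusters outside 100-1000 RFU.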
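Also: ATP exposure 15 min at 22 °C before imaging.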

Sequence	switch fluorescence ratio
AATGCCTCAG	1 ± 0.024
AATGCCTTTT	1.04 ± 0.037
AATGCGGGGT	1.13 ± 0.16
AATGCGTATG	1.02 ± 0.036
AATGCGTGGC	1.0436 ± 0.00057
AATGCTAATA	0.952 ± 0.011
AATGCTGTGT	0.97 ± 0.021
AATGGAATTT	1.03 ± 0.066
AATGGAGGGA	0.974 ± 0.011
AATGGAGGGT	1.03 ± 0.055
AATGGATATG	1.02 ± 0.058
AATGGCACAG	1.01 ± 0.015
AATGGCATTT	0.989 ± 0.025
AATGGCCAAG	1 ± 0.0056
AATGGCGCGA	1.02 ± 0.054
AATGGGGAAT	1.25 ± 0.4
AATGGGGGTA	0.998 ± 0.034
AATGGGGTAT	1.02 ± 0.018
AATGGGTAC	1.015 ± 0.0059
AATGGGTACT	1 ± 0.015
AATGGGTTCA	1.021 ± 0.0062
AATGGGTTGA	0.9743 ± 0.0053
AATGGTAATT	0.995 ± 0.039
AATGGTAGGG	1 ± 0.03
AATGGTCAT	0.991 ± 0.071

Sequence	switch fluorescence ratio
AATGGTGATT	1.02 ± 0.046
AATGGTGCCT	0.996 ± 0.07
AATGGTTTGG	0.985 ± 0.013
AATGTCAATG	0.991 ± 0.021
AATGTCAGCT	1.01 ± 0.021
AATGTCATCA	0.993 ± 0.013
AATGTCATTT	1 ± 0.018
AATGTGCGGG	0.963 ± 0.042
AATGTGCTGT	0.983 ± 0.058
AATGTGGACG	0.988 ± 0.04
AATGTGTGAA	1.01 ± 0.017
AATGTTAAGT	0.994 ± 0.022
AATGTTATCT	0.994 ± 0.057
AATGTTGTCC	1.007 ± 0.0094
AATGTTTGTT	0.971 ± 0.015
AATTAAAAGT	0.989 ± 0.017
AATTAAAGTT	0.98603 ± 0.00086
AATTAACGCG	0.993 ± 0.023
AATTAAGAGA	1.04 ± 0.017
AATTAAGGGG	0.997 ± 0.029
AATTAAGGGT	0.9881 ± 0.0058
AATTAAGTGT	0.969 ± 0.021
AATTAATCCA	0.997 ± 0.017
AATTACGTAA	1.06 ± 0.012
AATTACGTTT	1.06 ± 0.062

Sequence	switch fluorescence ratio
AATTACTTTT	1.02 ± 0.02
AATTAGCAAG	1.04 ± 0.018
AATTAGCTGT	0.9743 ± 0.0085
AATTAGGGGG	0.981 ± 0.064
AATTAGTCTA	1.01 ± 0.03
AATTATTGCA	0.997 ± 0.043
AATTATTGTT	0.996 ± 0.017
AATTATTTTG	1 ± 0.045
AATTATTTTT	0.9867 ± 0.0061
AATTCAACAC	1.05 ± 0.038
AATTCATAGT	0.978 ± 0.018
AATTCCGATA	1.02 ± 0.026
AATTCGGCTT	0.978 ± 0.0088
AATTCGGGCG	1.02 ± 0.071
AATTCGTCGG	1.02 ± 0.045
AATTCTATAG	0.995 ± 0.033
AATTGAGGGC	1.02 ± 0.035
AATTGATCGT	0.982 ± 0.024
AATTGCATAA	0.996 ± 0.04
AATTGCCTGT	0.933 ± 0.071
AATTGCTTGT	0.978 ± 0.02
AATTGGCGTA	1.01 ± 0.034
AATTGGGGGG	0.998 ± 0.04
AATTGGTGTT	0.985 ± 0.025
AATTGTAGGC	0.976 ± 0.036

Sequence	switch fluorescence ratio
AATTGTTATG	0.999 ± 0.039
AATTGTTGGG	1.01 ± 0.041
AATTTAAGAA	0.971 ± 0.013
AATTTACACT	1.06 ± 0.014
AATTTAGGAG	1.01 ± 0.051
AATTTAGGTT	0.993 ± 0.03
AATTTAGTTT	0.978 ± 0.026
AATTTCACTT	1.003 ± 0.0047
AATTTCGGAT	0.9595 ± 0.0035
AATTTCGGGG	0.999 ± 0.017
AATTTGACAT	1.03 ± 0.02
AATTTGATGG	0.995 ± 0.013
AATTTGATGT	1.005 ± 0.0056
AATTTGCGGC	0.982 ± 0.029
AATTTGCGTT	0.999 ± 0.013
AATTTGGAAG	0.981 ± 0.027
AATTTGGGCG	1 ± 0.04
AATTTGGTAC	1.068 ± 0.0027
AATTTGGTCG	0.978 ± 0.03
AATTTGGTGC	1.011 ± 0.0064
AATTTGTCCA	0.98 ± 0.015
AATTTGTGGA	0.9855 ± 0.007
AATTTGTGGC	0.995 ± 0.034
AATTTTATGG	1.01 ± 0.022
AATTTTCGGA	0.991 ± 0.013

Sequence	switch fluorescence ratio
AATTTTCTGC	1.01 ± 0.053
AATTTTGAGG	0.984 ± 0.034
AATTTTGCGG	1.01 ± 0.038
AATTTTTAAA	0.968 ± 0.038
AATTTTTAAC	1 ± 0.028
AATTTTTAGG	0.98099 ± 2.5e-05
AATTTTTCAT	0.977 ± 0.028
AATTTTTCCG	1.05 ± 0.036
ACAAAACTC	1.27 ± 0.37
ACAAACGCTG	1.28 ± 0.0027
ACAAAGCGCC	1.06 ± 0.015
ACAAATGCAA	1.12 ± 0.037
ACAAATGCAG	1.01 ± 0.013
ACAAATTGCG	0.991 ± 0.027
ACAAGAGATA	1.01 ± 0.015
ACAAGCTGAC	1.27 ± 0.15
ACAAGGATA	1.006 ± 0.0077
ACAAGGTATA	1.15 ± 0.15
ACAAGTATGT	1.02 ± 0.041
ACAAGTGATC	1.076 ± 0.0017
ACAATCGAGC	0.988 ± 0.047
ACAATCGTTT	1.01 ± 0.014
ACAATCTAAA	1.033 ± 0.0091
ACACAGTACT	1.37 ± 0.09
ACACATCCGG	1.06 ± 0.015

Sequence	switch fluorescence ratio
ACACATCGGA	1.005 ± 0.0057
ACACCACGTT	1.56 ± 0.057
ACACCCCCGT	1.67 ± 0.19
ACACCCTTGG	1.08 ± 0.098
ACACCTGAGT	1.16 ± 0.011
ACACGCCCAA	1.12 ± 0.069
ACACGGCGGC	1.07 ± 0.033
ACACGGGGCG	0.984 ± 0.066
ACACGGGGCT	1.01 ± 0.051
ACACGGGTGC	1.74 ± 0.062
ACACGTGCCC	1 ± 0.028
ACACTAGGTT	1.06 ± 0.051
ACACTCTTGA	1.03 ± 0.025
ACACTGCCAT	1.16 ± 0.032
ACAGCAGTTG	1.04 ± 0.042
ACAGCCCGGA	1.07 ± 0.04
ACAGCGCCGG	1.018 ± 0.002
ACAGCGGACG	1.02 ± 0.031
ACAGCGTGGG	1.041 ± 0.0097
ACAGCTGAAG	1.002 ± 0.0066
ACAGCTGAGC	0.999 ± 0.0079
ACAGGAAGGG	1 ± 0.01
ACAGGATGGT	0.998 ± 0.024
ACAGGCAGGA	1.01 ± 0.022
ACAGGCCAGG	1.23 ± 0.082

Sequence	switch fluorescence ratio
ACAGGGGAAT	1.01 ± 0.012
ACAGGGGTAA	1.01 ± 0.013
ACAGGGGTTA	1.25 ± 0.4
ACAGGGGTTT	1.37 ± 0.7
ACAGGGTGCA	1.03 ± 0.052
ACAGGGTTAC	0.991 ± 0.027
ACAGGTATTA	0.996 ± 0.017
ACAGGTCATT	1.01 ± 0.034
ACAGTATGGC	0.952 ± 0.041
ACAGTATGGG	1.03 ± 0.021
ACAGTCAAGG	1.02 ± 0.035
ACAGTCAGAT	1.057 ± 0.0067
ACAGTCATGG	1.021 ± 0.0092
ACAGTCTCTG	1.03 ± 0.018
ACAGTGCCGG	1.02 ± 0.055
ACAGTGCGGC	0.961 ± 0.035
ACAGTTCCCC	1.13 ± 0.25
ACAGTTGTTA	0.98717 ± 0.00059
ACAGTTTTGC	0.985 ± 0.02
ACATAAAGGG	1.03 ± 0.024
ACATAATTTC	1.03 ± 0.02
ACATACCGTG	1.21 ± 0.038
ACATACGAGT	1.38 ± 0.029
ACATACGCAA	4.63 ± 0.56
ACATATGGTA	0.9801 ± 0.0085

Sequence	switch fluorescence ratio
ACATATTGTG	1.03 ± 0.062
ACATCAGATG	1.005 ± 0.0023
ACATCTTCGA	0.97 ± 0.046
ACATGAATGG	0.969 ± 0.016
ACATGATCTC	0.993 ± 0.021
ACATGATGGC	1.05 ± 0.018
ACATGATTCG	0.99 ± 0.03
ACATGATTGC	1.029 ± 0.0054
ACATGATTGG	0.97 ± 0.037
ACATGCTACG	1.05 ± 0.034
ACATGGGGGG	0.993 ± 0.038
ACATGGGTGC	1.11 ± 0.063
ACATGTTGCC	1.02 ± 0.0074
ACATGTTGTT	0.993 ± 0.024
ACATTCCAGT	1.14 ± 0.15
ACATTCGCGT	1.05 ± 0.018
ACATTCTACG	1.25 ± 0.017
ACATTTGACG	1.05 ± 0.017
ACATTTGGGA	0.964 ± 0.026
ACATTTGTGG	1.01 ± 0.021
ACCAAATAAG	1.02 ± 0.023
ACCAATAGGA	1.01 ± 0.021
ACCAATATAT	0.996 ± 0.033
ACCACGAATG	1.025 ± 0.0051
ACCACGCGGG	1.01 ± 0.066
